Experimental data taken from a protein production outcome set (Wang et al. 2014).
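Also: failed if final PepcDB status was selected cloned or expressed and not failed if soluble or beyond.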

Assay: label from the status in PepcDB records
With “ALVNIVVTNRCDLSCFYCFFYAERAGYIYEPSIEQIKFMVRQVARQRQGSDVHVNIQITGGEPTVREDLVDVVKAIREAGAHYIQLNTNGINVARRYLDNPPGAIDYVRSLREAGVSVVYMSFDGVTPKVNWKNHYEAPFALKAFQEGGLDNVVLVPTVIRTINDHEVGDIIRFAGKHIDVVRGVNFQPVSLTGM” the protein production was “failed”. In the case of “ANLYWFRADWFERPDLKKKFKDKYGYELGVPVNWSAYEDIAKFFSEDVKEIDGKKVFGHMDYGKKDPSLGWRFTDAWFSMAGSGDKGLPNGLPVDEWGIRVEDCHPVGSSITRGGDTNGPAAVFATQKYIDWLKAYAPPEAAGMTFSESGPVPSQGNVAQQIFWYTAFTADMTKPGLPVMNADGTPKWRMAPSPKGPYWKEGMKLGYQDVGSWTFLKSSDEKKRLAAWLYAQFVTSKSVSLKKTIVGLTPIRESDINSK”, the protein production is reported as “failed”. In the case of “APAEIFNVVKYPAKLGDMYAYLTPPPANKKNKLPAVIWLNGGYGGIGGDDYFWTPQPVENDQTGATFRDPNMVLMIPSFRGENTNPGRYEMFYGELEDLDSAREYLASLPYVDPKRIYVVGHSTGGTRALLASEYSDKFRAIFSLGGIPDLKLRTEGRMMVELPFDKNNEEEFNVRSVYRYIKSIKTPTFYFEGHDYFWDEFNELRVVAMEHDIPLKIYNIKNGDHFNIIVPVSQLIKEKILQDTDTNKESNIRFTNEEIKWINKMVK”, the protein production is reported as “failed”. For “AQKLSATSRILSSSRGPAPDDIADFFGTDRAAQHITLRRLRLGNGRPYAIDNGWYNSEFAPDLLENDVYNSVYSILDRVYGVPVTQAEQTVTAVAADEDTARLLDVTPGAPLLRILRQSLSGDKPVEWCVSLYRTDRYSLKTLVTRSEDL”, the protein production was “not failed”. With “AQTRLLIQNRLVAQRDEFDNVFHSIRDGVITYDTDFRIHFTNRSLLKMLHLPKDEAARPYEGLPAGSIFKIYNNGKEILRPMLKQVVTEESSVVIPENSFMQEVHSGSYFPVSGEVVPIRAHGKITGMALSARNIS” the protein production was “failed”. For “ARGHRHTCKVMVLKEEAAGSERALALDMREGQRVFHSLIVHFENDIPVQIEDRFVNAQVAPDYLKQDFTLQTPYAYLSQVAPLTEGEHVVEAILAEADECKLLQIDAGEPCLLIRRRTWSGRQPVTAARLIHPGSRHRLEGRFTK”, the protein production was “not failed”. With “ARYLDVTSRRDPEHSHRTYYVTGQVFFASADRFTASFDLREKVETLAIDLREAHFWDITAVAALDKVVLKLRRAGISVDVVGMNRATATLVDRFGVHDKPDGIDSLMGH” the protein production was “failed”. In the case of “ASLKDFELSKMLEKVAKESSVGTPRAINEDILDQGYTVEGNQLINHLSVRASHAERMRSNPDSVRSQLGDSVCSNTGYRQLLARGAILTYSFTEYKTNQPVATERFDAGSCRIQGKK”, the protein production is reported as “not failed”. In the case of “ASNSQLNAMAHQIQEMFPQVPYHLVLQDLQLTRSVEITTDNILEGRIQVPF”, the protein production is reported as “not failed”. In the case of “ASTVHEMGVFASLDDAVAAAKRAQQGLKSVAMRQLAIHAIREAGEKHARELAELAVSETGMGRVDDKFAKNVAQARGTPGVECLSPQVLTGDNGLTLIENAPWGVVASVTPSTNPAATVINNAISLIAAGNSVVFAPHPAAKKVSQRAITLLNQAVVAAGGPENLLVTVANPDIETAQRLFKYPGIGLLVVTGGEAVVDAARKHTNKRLIAAGAGNPPVVVDETADLPRAAQSIVKGASFDNN”, the protein production is reported as “failed”. In the case of “ATEATNATNNQSTQVSQATSQPINFQVQKDGSSEKSHMDDYMQHPGKVIKQNNKYYFQTVLNNASFWKEYKFYNANNQELATTVVNDNKKADTRTINVAVEPGYKSLTTKVHIVVPQINYNHRYTTHLEFEKAIPTLADAAK”, the protein production is reported as “not failed”. With “ATGTTGGGCATGATCAGGAACTCACTGTTCGGGAGCGTGGAAACGTGGCCTTGGCAGGTTCTAAGCACCGGGGGCAAGGAAGATGTCTCCTATGAGGAAAGAGCCTGTGAAGGGGGCAAGTTTGCTACTGNGGAAGTGACAGACAAGCCAGTGGATGAGGCTCTCCGGGAAGCGATGCCCAAGATCATGAAGTATGTGGGTGGCACCAATGACAAAGGAGTCGGCATGGGTATGACAGTCCCTGTCTCTTTTGCCGTGTTTCCCAATGAAGATGGCTCCCTACAGAAGAAACTGAAAGTCTGGTTCCGGATTCCGAACCAATTTCAAGGCAGCCCACCGGCCCCCAGTGACGAGAGTGTGAAGATCGAGGAACGGGAGGGCATCACTGTCTATTCCACGCAATTTGGAGGCTATGCCAAGGAAGCAGACTATGTTGCTCATGCCACCCAGCTACGGACCACACTGGAGGGCACACCAGCGACCTACCAGGGTGATGTCTACTACTGTGCCGGATATGACCCTCCCATGAAGCCCTATGGACGCCGTAACGAGGTCTGGCTTGTGAAGGCATGA” the protein production was “not failed”. With “AVEARQSATEAERRRHRLEQILKTVPSCVVQLDRDGQFVFANQRAIDVLGLSQSELKDRLYNDPEWEIRDLDGHPIPDAELPFRQVLETGQPLSDARHTIHWPDGTEKVLSVNGAPLFDDDGAVESVVCTLTDIT” the protein production was “not failed”. For “AWQAAVASNEPFGEAQLAQRIRRYLPEQGQLFVGNSLVVRLIDALAQLPAGYPVYSNRGASGIDGLIATAAGVQRASARPTLAIVGDLSALYDLNSLALLRQASAPLVLIVVNNNGGQIFSMLPTPQDERRQFYLMPQDVDFSHAAVMFGLAYHRPDDWPSLDEALAGAWRRAGATVIELAVNETDGAQTLQQLLAQVSRL”, the protein production was “failed”. In the case of “AYPGFELDIDLALPGRGVTALFGHSGSGKSTCLRCIAGLEKAAEGEVTINGETWQDSRRNLFVAPHRRALGYVFQDANLFRHLTVRRNLAFGLKRIAAAERRVELEQACALLGIEHLLERMPERLSGGEQQRVGIARALLTSPRLLLMDEPLASLDLKRKGEILPYLERLHEELDIPVLYVSHSPDEVARLADHLVLLENGKVRASGPIGETLARVDLPLALDDDAGVVIEGTVSDHDPAYGLLTLVLPGSALQMRVAHAPLAPGKRLRFKVQARDVSLNLRDDAQSSILNRLPVRVLELVDTDTAAHVLVRLDAGGNPLLARITRYSRDQLQLR”, the protein production is reported as “failed”. With “CAAIAALSAVGLPSDRFSFEGFLPSKSSQRLLQLEKLKDETQTLIFYEAPHRILDCVTDMMHIFGEDRPVGFAREITKTFETIKKMTLKELVSFIQNDHHQQKGEIVLIVGGNPVNK” the protein production was “failed”. In the case of “CLEDILSATKMVINLCLPQFRPRIHCNKISADGYEVENLISEDLTKRSHGFRTEYFIKPPVYVTVSFPFNVEICRINIDLTAGGGQNVTGLEMYTSASSSRVSWNTPQCRTLGPAEPSVPDKEAFTLVGKVLLKNQSQVVFSHRGFKARPPFGAMEATLPSPAVVAQELWNKGALSLSHVAHLRICITHVTGGGIPCIKRLEVWGQPAKTCSQEVIDSILLVTSENLPQDVALQAPALPMESDCDPGDQPESQQAPSSLQKLAEIIQDVPEEFLDPITLEIMPCPMLLPSGKVIDQSTLEKCNRSEATWGRVPSDPFTGVAFTPHSQPLPHPSLKARIDHFLLQHSIPGCHLLGRAQTALAVIPSSIVLPSQKRKIEQAEHVPDSNFGVNASCFSATSPLVLPTTSEHTAKKMKATNEPSLTHMDCSTGPLSHEQKLSQSLEIALASTLGSMPSFTARLTRGQLQHLGTRGSNTSWRPGTGSEQPGSILGPECASCKRVFSPYFKKEPVYQLPCGHLLCRPCLGEKQRSLPMTCTACQRPVASQDVLRVHF”, the protein production is reported as “not failed”. With “CSACGETVMPGSRKLEYGGQTWHEHCFLCSGCEQPLGSRSFVPDKGAHYCVPCYENKFA” the protein production was “not failed”. For “CSPVRERRLEHQLEPGDTLAGLALKYGVTMEQIKRANRLYTNDSIFLKKTLYIPILTEPRDLFN”, the protein production was “not failed”. In the case of “DAHSTIDSRIIHFKLEFANEFLAEKLQVALQSPVYNIYRLRIIDGKPYVLEQTYMSTDVIPGITEDILQKSIYNYIEGKLGLHIASATKILRASSSSENEQHYLQLLPTEPVFEVEQVAYLDNGTPFEYSISRHRYDLFE”, the protein production is reported as “not failed”. With “DAPQGAVIILPGDAESPDWPDTVGPLRRKFPDVGWSSLSITLPDAQDNTLLPREPDAAAGDANAAKPEETPKDAAAKAPDPAAEAEALAAVATAKAAADEERNKAQAELIFARIESAISFAQQNKARNIVLLGHSSGAYWAARFLNERPSPAVQKLVMVAA” the protein production was “failed”. In the case of “DARKGNASAPVVAVEFFDYQCGYCKGALPELAAALSGRNDVAVVMKEFPILGSTSEAAARLALAVRAEHGDEAYLGFHNALLSHKGGLNEAALSILAGAAGYDYPALVARGRQDDITSIIDGNRRLAQALSISGTPAFVFRDGEVVPGMMAADRLTAAFDRLSASTAAAQ”, the protein production is reported as “failed”. In the case of “DDANVVRDRDLEVDTTLKSLSQQIENIRSPEGSRKNPARTCRDLKMCHSDWKSGEYWIDPNQGCNLDAIKVFCNMETGETCVYPTQPSVAQKNWYISKNPKDKRHVWFGESMTDGFQFEYGGQGSDPADVAIQLTFLRLMSTEASQNITYHCKNSVAYMDQQTGNLKKALLLKGSNEIEIRAEGNSRFTYSVTVDGCTSHTGAWGKTVIEYKTTKSSRLPIIDVAPLDVGAPDQEFGFDVGPVCFL”, the protein production is reported as “failed”. In the case of “DDLLIVRGVNLYPSEIEHAVLDINGVAPYYRIDLYEEDNLDVMELTVERAEGSSKDHSELRDDVLSRLQSVLSFTPDQLNLVNPGTIERTEVGKIQRVYDHRN”, the protein production is reported as “failed”. With “DDNNAAEVDRQVAQDSAEPKTGENAAAGDSSSTNKNAEKIVAVDISAETEKTYLTHVANDMVIPAYADAAKQSDLLHDLAQKHCQKAPVSGDELQALRDQWLVLAQAWASAEMVNFGPATASMSNLYINYYPDERGLVHGGVADLITANPALTAEQLANESAVVQGIPGLEEALYANDSLDAGQCAYVMSASSALGTRLKDIEKNWQQNAIKLLAIDKTAESDQGLNQWFNSLLSLVETMKSNAIEQPLGLSGKAKGHLPAATAGQSRAIINAKLATLNKAMTDPVLTAILGSNNENTVADTLSTALADTTALLAQMPEDLATADKATQQELYDHLTNITRLIKSQLIPTLGIRVGFNSTDGD” the protein production was “not failed”. In the case of “DDNSYSLGDIWIAVATVVPEGNNVYYLRLDDGDKLWPAATNYPNYQPKPNQRALVNFTILADSTQSNLGGFSHYIKVNAIHNILTKSIAKNEGAANDSIYGTDPVSIYNNNMWIGDGYLNIYFETLWGGKTAHFINLIQPDAENDPYTLEFRHNAYDDPQYTIGAGRVAFNLSSLPDTKGETVDLVVNYWTSEGKQAYKLKYNSDKTKMEDTSQGYTNDSISNITDMK”, the protein production is reported as “not failed”. In the case of “DEWTDVKKVMALGFFDGVHLGHQAVIKQAKQIAEEKGLQTAVLTFDPHPSVVLSNIRKQVKYLTPLEDKAEKMANLGVDIMYVVRFTTQFSELSPRAFVDNYLVALNVKHVVAGFDYSYGKKGEGKMTELENYANGRFEVTIVDKQTAASDKISSTNIRRAITEGELEEANQLLGYP”, the protein production is reported as “not failed”. For “DGKLYTLNYGKVSSIALDPIEKKPLFHFWPGSCAFSIGTVGCNMHCKHCQNWEISQADESFPYLQDATPESIVRLARHYECESIAYTYNEPTIWYEFVLDTAKLAKKEGLNNILVTNGYINEEPFRELAKYIDAMNIDIKAFNDKFYMKISSVPSGEPSRRTAVIAKKEFGIHVELTYLIIPTLNDNEEEIRRFARWVVEELGDDTPVHFSRFFPHYKLLNLPPTPIQTLEKAYKIAKEEGLKFVYLGNVPGHEGENTYCPRCGKLLIERWGFEILRYEIKDGKCKY”, the protein production was “failed”. In the case of “DGRCISLLKILMTNFCIFDCAYCVNRVSSRVERARFSVEEVVTLTVEFYRRNYIEGLFLSSGIIRSPDDTMADMVRIAKTLREREHFRGYIHLKTIPDAAPELIEQAGLYADRLSINVELPTEAGLDRFAPEKSATGIRKAMAEVRLKREASREPSFSGRRPSRFA”, the protein production is reported as “failed”. In the case of “DGVRLLEELGAINAEAKDAKKRLTSIGRQLARLPIDPRLARMVLEAPKYGALKEVMIIAAALSIQDPRERPSDKQQSSDDKHRRFFHEESDFLTFV”, the protein production is reported as “failed”.
